Test results from US6511832.

Columns and labels:
[1] = system: LEF-4 wild type (E. coli) (Autographa californica nuclear polyhedrosis virus); settings: 5'-triphosphate; RNA triphosphatase, 1 uM RNA
[2] = system: LEF-4 R51A R51A (Autographa californica nuclear polyhedrosis virus); settings: 5'-triphosphate; RNA triphosphatase
[3] = system: LEF-4 E9/11A E9A,E11A (Autographa californica nuclear polyhedrosis virus); settings: 5'-triphosphate; RNA triphosphatase reduced 100-fold
[4] = target: baculovirus RNA polymerase complex (LEF-8/LEF-9/LEF-4/p47) (Autographa californica nuclear polyhedrosis virus) (UniProt P41452+P41465+P41477+P34051); settings: 5'-triphosphate; RNA 5'-triphosphatase turnover, 0.3 mM MnCl2, 30 C
Chain of UniProt P41452 (P41452 whole entry, chain 1 of 4): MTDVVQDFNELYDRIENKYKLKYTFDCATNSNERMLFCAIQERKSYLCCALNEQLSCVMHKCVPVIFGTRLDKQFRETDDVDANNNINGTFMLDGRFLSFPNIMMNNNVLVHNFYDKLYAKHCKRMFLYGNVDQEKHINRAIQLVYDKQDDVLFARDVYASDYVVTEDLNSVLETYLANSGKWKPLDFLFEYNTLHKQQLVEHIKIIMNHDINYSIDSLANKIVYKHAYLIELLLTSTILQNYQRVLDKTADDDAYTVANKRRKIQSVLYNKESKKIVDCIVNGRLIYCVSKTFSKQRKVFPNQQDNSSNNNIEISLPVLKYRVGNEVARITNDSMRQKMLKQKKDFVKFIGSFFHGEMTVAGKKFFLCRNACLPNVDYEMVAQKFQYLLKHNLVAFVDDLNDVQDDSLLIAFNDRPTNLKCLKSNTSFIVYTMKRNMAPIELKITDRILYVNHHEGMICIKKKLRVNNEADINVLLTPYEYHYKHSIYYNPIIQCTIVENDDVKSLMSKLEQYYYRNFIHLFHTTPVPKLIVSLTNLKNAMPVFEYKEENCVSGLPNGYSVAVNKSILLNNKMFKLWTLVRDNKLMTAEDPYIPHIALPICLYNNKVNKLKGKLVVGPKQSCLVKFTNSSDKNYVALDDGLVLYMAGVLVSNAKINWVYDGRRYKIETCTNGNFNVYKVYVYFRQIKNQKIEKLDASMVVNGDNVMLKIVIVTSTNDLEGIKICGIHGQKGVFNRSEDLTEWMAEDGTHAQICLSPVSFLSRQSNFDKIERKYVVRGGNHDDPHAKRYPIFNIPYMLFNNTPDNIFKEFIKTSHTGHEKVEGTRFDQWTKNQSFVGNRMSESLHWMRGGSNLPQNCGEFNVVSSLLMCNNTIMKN
Chain of UniProt P41452 (P41465 whole entry, chain 2 of 4): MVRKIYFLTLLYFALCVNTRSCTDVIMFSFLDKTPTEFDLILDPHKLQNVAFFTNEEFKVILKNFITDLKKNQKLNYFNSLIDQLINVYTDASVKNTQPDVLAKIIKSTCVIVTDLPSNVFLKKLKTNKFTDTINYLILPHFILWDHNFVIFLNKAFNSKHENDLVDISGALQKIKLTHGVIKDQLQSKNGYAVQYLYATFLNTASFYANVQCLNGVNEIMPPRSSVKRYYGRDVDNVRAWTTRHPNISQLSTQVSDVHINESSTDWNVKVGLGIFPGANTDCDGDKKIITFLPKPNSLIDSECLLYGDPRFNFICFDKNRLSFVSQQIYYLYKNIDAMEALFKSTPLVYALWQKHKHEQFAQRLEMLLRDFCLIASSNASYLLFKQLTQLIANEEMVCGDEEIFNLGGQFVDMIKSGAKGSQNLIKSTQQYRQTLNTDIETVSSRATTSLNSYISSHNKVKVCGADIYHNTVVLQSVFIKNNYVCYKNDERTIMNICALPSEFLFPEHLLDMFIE
Chain of UniProt P41452 (P41477 whole entry, chain 3 of 4): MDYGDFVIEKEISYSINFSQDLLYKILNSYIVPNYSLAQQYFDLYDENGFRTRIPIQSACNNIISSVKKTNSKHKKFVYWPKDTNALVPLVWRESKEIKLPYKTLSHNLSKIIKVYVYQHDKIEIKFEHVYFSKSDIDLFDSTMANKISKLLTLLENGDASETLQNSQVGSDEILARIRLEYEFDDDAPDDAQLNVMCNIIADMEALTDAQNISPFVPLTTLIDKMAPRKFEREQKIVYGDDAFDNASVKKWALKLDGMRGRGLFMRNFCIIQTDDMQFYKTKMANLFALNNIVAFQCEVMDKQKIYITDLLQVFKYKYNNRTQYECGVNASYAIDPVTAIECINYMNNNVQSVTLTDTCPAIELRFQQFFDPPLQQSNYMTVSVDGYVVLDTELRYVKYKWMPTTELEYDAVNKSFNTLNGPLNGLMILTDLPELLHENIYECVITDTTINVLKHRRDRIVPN
Chain of UniProt P41452 (P34051 whole entry, chain 4 of 4): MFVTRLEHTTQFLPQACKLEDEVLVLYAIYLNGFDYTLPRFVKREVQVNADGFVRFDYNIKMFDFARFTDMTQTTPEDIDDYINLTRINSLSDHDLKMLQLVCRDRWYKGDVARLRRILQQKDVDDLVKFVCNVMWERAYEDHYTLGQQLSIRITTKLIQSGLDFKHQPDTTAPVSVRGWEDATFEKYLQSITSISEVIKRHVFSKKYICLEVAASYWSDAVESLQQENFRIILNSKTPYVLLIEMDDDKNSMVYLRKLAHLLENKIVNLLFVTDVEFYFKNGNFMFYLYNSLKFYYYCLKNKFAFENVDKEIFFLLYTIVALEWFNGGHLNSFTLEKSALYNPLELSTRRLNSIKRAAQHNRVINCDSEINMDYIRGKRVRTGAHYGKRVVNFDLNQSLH

[5] = system: LEF-4 (Autographa californica nuclear polyhedrosis virus); settings: 5'-triphosphate; RNA 5'-triphosphatase turnover, 0.3 mM MnCl2, 30 C
[6] = system: LEF-4 L105F L105F (Autographa californica nuclear polyhedrosis virus); settings: 5'-triphosphate; RNA triphosphatase at nonpermissive temperature (33 C); equal to wild type at 25 C

## gamma-32P 5'-triphosphate 150-nt T3 transcript of pBluescript KS
[1]
  activity (pmol Pi/pmol per 15 min): 210
[2]
  RNA triphosphatase activity (% of wild type): 2.5
[3]
  binding signal (fraction of wild type): 0.01
[4]
  activity: 0.16 fmol/s/fmol
[5]
  activity: 0.31 fmol/s/fmol
[6]
  binding signal (% of wild type): 74
